The target in assay [1] is T1, human FcγRIIB, soluble ectodomain (human, UniProt P31994 43-217).
T1 construct: extracellular domain; Recombinant; also called hFcγRIIB; huFcγRIIB
T1 sequence (looked up): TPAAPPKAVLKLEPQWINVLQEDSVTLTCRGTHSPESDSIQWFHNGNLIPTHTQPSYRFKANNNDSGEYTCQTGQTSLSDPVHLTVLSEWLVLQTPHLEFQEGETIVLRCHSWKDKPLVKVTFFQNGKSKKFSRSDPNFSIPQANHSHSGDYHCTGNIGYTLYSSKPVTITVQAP
Description: fold change in hFcγRIIB binding affinity against wild type IgG1, from SPR. As to the method:
(§1) All experiments were performed with a Biacore T100 surface plasmon resonance (SPR) system (Biacore, GE Healthcare), as previously described (Bournazos, et al., 2014, Cell 158, 1243-1253). Briefly, experiments were performed at 25_C in HBS-EP+ buffer (10 mM HEPES, pH 7.4; 150 mM NaCl; 3.4 mM EDTA; 0.005% (v/v) surfactant P20). […] Background binding to blank immobilized flow cells was subtracted and affinity constants were calculated using BIAcore T100 evaluation software (GE Healthcare) using the 1:1 Langmuir binding model.

In assay [2] the target is T2, human FcγRIIA R131 allele, soluble ectodomain (human, UniProt P12318 34-217).
T2 construct: extracellular domain; also called hFcγRIIA^R131; hFcγRIIA
T2 sequence (looked up): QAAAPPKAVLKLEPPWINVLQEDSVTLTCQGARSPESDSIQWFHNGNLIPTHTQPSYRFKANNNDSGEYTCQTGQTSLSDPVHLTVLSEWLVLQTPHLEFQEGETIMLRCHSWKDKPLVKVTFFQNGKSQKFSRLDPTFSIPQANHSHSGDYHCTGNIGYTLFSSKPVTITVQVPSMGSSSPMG
In words: ratio of the binding affinities to hFcγRIIA R131 and to hFcγRIIB, from SPR. As to the method: as §1

Assay [3] has as its target T3, human FcγRI, soluble ectodomain (human, UniProt P12314 16-292).
T3 construct: extracellular domain; Recombinant; also called hFcγRI; huFcγRI
In words: SPR (Biacore T100), 2141 Fc variant and soluble FcγR ectodomain. How it is done:
as §1
(Surface plasmon resonance follows binding to a sensor surface in real time, without labels.)

The target of assay [4] is T4, human FcγRIIIA F158 allele, soluble ectodomain (human, UniProt P08637 17-208).
T4 construct: extracellular domain; also called hFcγRIIIA^F158; huFcγRIIIA
T4 sequence (P08637 17-208): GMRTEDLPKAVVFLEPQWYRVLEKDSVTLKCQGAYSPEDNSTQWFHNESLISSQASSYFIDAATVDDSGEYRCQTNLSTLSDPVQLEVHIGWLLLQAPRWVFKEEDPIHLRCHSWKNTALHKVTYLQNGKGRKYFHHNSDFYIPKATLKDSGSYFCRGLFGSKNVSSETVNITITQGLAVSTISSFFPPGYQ
The description is as above. As to the method: as §1

The target in assay [5] is T2, human FcγRIIA R131 allele, soluble …. The description is as above. As to the method: as §1
For assay [6], the target named is T1, human FcγRIIB, soluble ectodomain. Described as above. As to the method:
as §1

The target in assay [7] is T5, human CD40, soluble ectodomain / recombinant extracellular domain (human, UniProt P25942 21-193).
T5 construct: also called hCD40; huCD40
T5 sequence (P25942 21-193): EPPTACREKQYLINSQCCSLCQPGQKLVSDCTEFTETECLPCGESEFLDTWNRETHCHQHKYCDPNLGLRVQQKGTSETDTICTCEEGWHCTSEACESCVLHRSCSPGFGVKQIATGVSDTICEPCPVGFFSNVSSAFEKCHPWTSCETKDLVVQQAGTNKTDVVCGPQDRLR
In words: SPR (Biacore T100), IgG immobilised, soluble CD40 injected. As to the method: as §1

In assay [8] the target is T2, human FcγRIIA R131 allele, soluble …. In words: graded summary table of FcγR binding affinity profiles (SPR, see Table 4); the sheet prints no allele, R131 taken from Table 4. As to the method:
as §1

Consider nine molecules from patent publication US20210139598A1 (ROCKEFELLER UNIVERSITY, published 2021).

Broadly, the Kd is the free concentration of one partner at which half of the binding sites on the other are occupied at equilibrium, for simple one-to-one binding. In general, koff refers to the rate constant with which the complex falls apart. For orientation: kon means the rate constant with which the complex forms.

T3 sequence (P12314 16-292): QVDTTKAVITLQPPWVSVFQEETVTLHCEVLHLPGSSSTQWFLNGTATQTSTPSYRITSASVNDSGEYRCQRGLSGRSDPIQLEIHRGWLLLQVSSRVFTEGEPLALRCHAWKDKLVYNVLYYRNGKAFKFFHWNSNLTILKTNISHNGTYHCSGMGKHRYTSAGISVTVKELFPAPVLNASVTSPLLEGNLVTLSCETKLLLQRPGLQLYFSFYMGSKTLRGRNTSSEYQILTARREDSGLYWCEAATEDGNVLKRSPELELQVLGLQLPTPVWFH

B1: 2141-IgG1 (anti-human CD40 Ab clone 21.4.1, wild type human IgG1) (antibody)
heavy: not shown
light: DIQMTQSPSSVSASVGDRVTITCRASQGIYSWLAWYQQKPGKAPNLLIYTASTLQSGVPSRFSGSGSGTDFTLTISSLQPEDFATYYCQQANIFPLTFGGGTKVEIKRTVAAPSVFIFPPSDEQLKSGTASVVCLLNNFYPREAKVQWKVDNALQSGNSQESVTEQDSKDSTYSLSSTLTLSKADYEKHKVYACEVTHQGLSSPVTKSFNRGEC
notes: Made in HEK293T cells; also called IgG1 wild type
In turn, B1 showed a FcγRIIB -fold in assay [1] of 1 fold. In addition, the IIA/IIB in assay [2] is 2.7. Besides, the “Fold (KD(IgG1)/KD(Fc variant))” value in assay [3], in assay [4], in assay [5] and in assay [6] was 1 fold in each case. For the same molecule, the Kd in assay [7] amounted to 19.9 nM. In assay [7], the koff came out at 0.00119 s⁻¹. Also, in assay [7], the kon was determined as 59700 M⁻¹ s⁻¹.

B2: 2141-IgG2 (CP-870,893, human IgG2) (antibody)
heavy: not shown
light: B1 light
On to B2, for which the dissociation constant (Kd) in assay [4] is below 10000 nM. This molecule also displayed an equilibrium dissociation constant (Kd) in assay [5] below 10000 nM. In assay [7], the equilibrium dissociation constant (Kd) turned out to be 31 nM, the koff worked out at 0.00108 s⁻¹ and the on-rate constant (kon) was 34900 M⁻¹ s⁻¹.

B3: 2141-IgG1 N297A (antibody)
heavy: not shown
light: B1 light
notes: also called N297A Fc-null
For B3, in assay [8], the binding result is given as “no binding”. For the same molecule, in assay [7], the dissociation constant Kd amounted to 22.2 nM, the dissociation rate constant (koff) amounted to 0.00116 s⁻¹ and the kon is 52300 M⁻¹ s⁻¹.

B4: 2141-IgG1 G237D/P238D/H268D/P271G/A330R (V11) (antibody)
heavy: not shown
light: B1 light
notes: also called 2141-V11
For the molecule B4, in assay [7], the Kd was 27.4 nM, the off-rate constant (koff) was determined as 0.00112 s⁻¹ and the kon stood at 41000 M⁻¹ s⁻¹.

B5: 2141-IgG1 S267E (antibody)
heavy: not shown
light: B1 light
notes: also called SE
Regarding B5, in assay [7], the Kd was 23.1 nM, the off-rate (koff) is 0.00115 s⁻¹ and the on-rate constant (kon) came to 50000 M⁻¹ s⁻¹.

B6: 2141-IgG1 G237D/P238D/P271G/A330R (V9) (antibody)
heavy: not shown
light: B1 light
With B6, in assay [3], the Kd is 578 nM. In assay [7], the dissociation constant Kd was determined as 26.8 nM, the dissociation rate constant (koff) is 0.00113 s⁻¹ and the kon came to 42200 M⁻¹ s⁻¹.

B7: 2141-IgG1 S267E/L328F (antibody)
heavy: not shown
light: B1 light
notes: also called SELF
B7 gave a dissociation constant Kd in assay [5] of 17.7 nM. For the same molecule, in assay [7], the Kd was determined as 27.4 nM, the koff was found to be 0.00116 s⁻¹ and the association rate constant (kon) was 42300 M⁻¹ s⁻¹.

B8: 2141-IgG2 C127S (antibody)
heavy: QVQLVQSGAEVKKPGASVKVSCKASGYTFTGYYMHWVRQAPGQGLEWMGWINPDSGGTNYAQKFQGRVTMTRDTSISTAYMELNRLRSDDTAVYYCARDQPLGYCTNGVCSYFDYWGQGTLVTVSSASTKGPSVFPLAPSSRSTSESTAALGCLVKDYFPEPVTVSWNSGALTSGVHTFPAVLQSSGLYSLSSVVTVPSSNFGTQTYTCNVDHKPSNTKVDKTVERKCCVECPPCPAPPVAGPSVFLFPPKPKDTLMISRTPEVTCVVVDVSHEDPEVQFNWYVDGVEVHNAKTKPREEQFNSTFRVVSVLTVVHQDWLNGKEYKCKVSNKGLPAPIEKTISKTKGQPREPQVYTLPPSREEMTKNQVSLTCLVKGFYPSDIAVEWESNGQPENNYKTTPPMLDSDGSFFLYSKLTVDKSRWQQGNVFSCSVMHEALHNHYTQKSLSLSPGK
light: B1 light
notes: also called IgG2-B
On to B8, for which, in assay [7], the dissociation constant Kd turned out to be 30.9 nM, the koff was 0.0011 s⁻¹ and the kon is 35500 M⁻¹ s⁻¹.

B9: 2141-IgG2 C232S (antibody)
heavy: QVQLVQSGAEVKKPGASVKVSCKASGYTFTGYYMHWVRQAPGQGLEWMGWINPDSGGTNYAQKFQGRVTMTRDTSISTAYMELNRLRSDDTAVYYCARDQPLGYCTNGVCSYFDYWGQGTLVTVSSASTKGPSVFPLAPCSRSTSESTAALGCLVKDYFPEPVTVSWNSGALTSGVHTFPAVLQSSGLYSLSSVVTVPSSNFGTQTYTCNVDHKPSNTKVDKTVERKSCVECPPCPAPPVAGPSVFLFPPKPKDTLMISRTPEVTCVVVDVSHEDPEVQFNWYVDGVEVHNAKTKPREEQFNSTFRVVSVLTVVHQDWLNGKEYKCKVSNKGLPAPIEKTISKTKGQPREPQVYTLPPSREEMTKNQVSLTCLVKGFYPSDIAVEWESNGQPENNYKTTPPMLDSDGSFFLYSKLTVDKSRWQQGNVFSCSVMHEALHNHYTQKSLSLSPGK
light: B1 light
notes: also called IgG2-C232S (IgG2A); IgG2-A
For B9, in assay [7], the Kd worked out at 30.9 nM, the koff is 0.00109 s⁻¹ and the kon amounted to 35200 M⁻¹ s⁻¹.
